Assay results as given in patent publication US20240358847A1, “TROP2 BINDERS AND CONJUGATES THEREOF” (MERCK SHARP & DOHME LLC, priority 2023, published 2024).

Experiments:
[1] = Hydrophobic interaction chromatography (HIC); type: physicochemical; settings: butyl HIC column, FIG. 4
Procedure: The samples are eluted using an inverted gradient from mobile phase A to 50 mM sodium phosphate, pH 7.0/isopropanol (80:20 v/v) (mobile phase B). The elution is followed by recording the A280 nm as a function of time, the data is then exported and analyzed using the Empower software.
(§1) Developability characteristics for various mutants were performed as in Bailly Et al., Predicting Antibody Developability Profiles Through Early Stage Discovery Screening, MABS 12 (1): e1743053 (2020) (doi: 10.1080/19420862.2020.17430530), which is incorporated herein by reference in its entirety. Various methods used may be found herein under General Methods.

[2] = Drug antibody ratio (DAR) of ADC by MS / HIC; type: physicochemical
Procedure: A 100 mM solution of dehydroascorbic acid (8.0 equiv.) in water was added slowly and the solution was mixed at room temperature for 4-10 hours or until completion (monitored by reverse phase liquid chromatography (RP-LC) and sodium dodecyl sulfate capillary electrophoresis (CE-SDS)). A 20 mg/mL solution of linker-payload (3.0 equiv.) in DMSO was added and the conjugation was incubated at room temperature for 2 hours (monitored by Quadrupole time-of-flight (QTOF) mass spectrometry (MS)) before addition of L-cysteine (5 equiv., 50 mM in water) to quench residual linker-payload. […] The ADC was brought to the final desired concentration using Sartorius Vivacell 70 Centrifugal Concentrators and Amicon® Ultra Centrifugal Filters.
The control antibody profile is the unconjugated antibody.

[3] = UP-SEC aggregation; type: physicochemical
Procedure: as §1

[4] = Rat PK of αTROP2 MMAE ADC (tAb, cAb, released MMAE); type: in vivo, Wistar Hannover Rats; settings: 5 mg/kg IV, up to 14 days, LLOQ […]
Procedure: Plasma concentrations of payload conjugated anti-TROP2 antibody (cAb), total antibody (tAb), and released payload were measured up to 14 days post dose.

[5] = system: BxPC3 pancreatic cancer cells; assay: In vivo anti-tumor efficacy in BxPC3 mouse model; parameters: species or system BALB/c nude mice; settings: dose response, IV single dose, FIG. 14
Procedure: Experimental protocol: 7-8 week old female BALB/c nude mice were purchased from Gempharmatech Co., Ltd. ([…]). […] Mouse body weights and tumors were measured twice weekly, and tumor volumes calculated using the formula V=0.5 [a*b2]; where a and b are the long and short diameters of the tumor, respectively. 110 mice were assigned to 11 groups of 10 mice each using a computer-generated randomization procedure to minimize tumor volume variance across groups. Treatments were started when tumors reached an average size of 200 mm^3. PBS and the MMAE conjugates were dosed intravenously (IV) at 2 mg/kg according to Table 25.
Mouse body weights and tumors were measured twice weekly, and tumor volumes calculated using the formula V=0.5 [a*b2]; where a and b are the long and short diameters of the tumor, respectively. 70 mice were assigned to 7 groups of 10 mice each using a computer-generated randomization procedure to minimize tumor volume variance across groups. Treatments were started when tumors reached an average size of 200 mm^3. PBS, a control mAb, and bioconjugate were dosed intravenously (IV) according to Table 26.

[6] = Non-reducing CE-SDS; type: physicochemical
Procedure: as §1

B1: αTROP2 (HC:BSM-YTE-S375C) (LC:BSM-Y53D): HC SEQ ID NO: 20 or 90; LC SEQ ID NO: 22 (antibody)
heavy: QVQLLQSGSELKKPGASVKVSCKASGYTFTNYGMNWVRQAPGQGLKWMGWINTYTGEPTYTDDFKGRFSFSLDTSVSQAYLQISSLKAEDTAVYYCARGGFGSSYWYFDVWGQGTLVTVSSASTKGPSVFPLAPSSKSTSGGTAALGCLVKDYFPEPVTVSWNSGALTSGVHTFPAVLQSSGLYSLSSVVTVPSSSLGTQTYICNVNHKPSNTKVDKKVEPKSCDKTHTCPPCPAPELLGGPSVFLFPPKPKDTLYITREPEVTCVVVDVSHEDPEVKFNWYVDGVEVHNAKTKPREEQYNSTYRVVSVLTVLHQDWLNGKEYKCKVSNKALPAPIEKTISKAKGQPREPQVYTLPPSRDELTKNQVSLTCLVKGFYPCDIAVEWESNGQPENNYKTTPPVLDSDGSFFLYSKLTVDKSRWQQGNVFSCSVMHEALHNHYTQKSLSLSPGK
light: DIQLTQSPSSLSASVGDRVTITCKASQDVSIAVAWYQQKPGKAPKLLIYSASDRYTGVPSRFSGSGSGTDFTLTISSLQPEDFATYYCQQHYITPLTFGPGTKVEIKRTVAAPSVFIFPPSDEQLKSGTASVVCLLNNFYPREAKVQWKVDNALQSGNSQESVTEQDSKDSTYSLSSTLTLSKADYEKHKVYACEVTHQGLSSPVTKSFNRGEC
modifications: YTE Fc mutations
HIC peak elution [1]: 24.14 fraction

B2: αTROP2 (HC: BSM-YTE-S375C-MMAE)(LC: BSM-Y53D) (conjugate)
heavy: B1 heavy
light: B1 light
DAR ([2]; Table 22): 1.7 | DAR ([2]; Table 23): 1.7 | % HMW (SEC) ([3]; Table 22): 4.33% | % HMW (SEC) ([3]; Table 23): 4.33%

B3: ADC 1: αTROP2 (HC:BSM-YTE-S375C) (LC:BSM-Y53D) conjugated to MP-AA-PABC-MMAE (conjugate)
heavy: B1 heavy
light: B1 light
unconjugated antibody ([2]; by MS): unconjugated antibody (1.2%) | unconjugated MMAE in the plasma [4]: no detectable | Purity by UP-SEC [3]: 96.4% | tumor volume [5]: effective at reducing tumor volume | Purity by CE-SDS NR [6]: 94.7%
